Experiment: soluble on expression in E. coli; label from the status in PepcDB or PDB records

Sequence	soluble on expression in E. coli
DHLHVIGDIYDRGPAPDKIMDRLMSYHSLDIQLGNHDMIWLAAYSGSLACLANVVRICARYGNLDLLEERYAIDLTALKKFSLETYKENPAFAPKKNPYRALTEAEKQVAMRVQQAIAIIQEKLEGQIIGRRPDFNLAHRLRLDKIQGETITFDECRYTLINSCFQTVSEEQPYQLTREEKQIIDDLLTQFQSSPRLTKHMRFLMEKASLYLVYNQNLLIHGCLPLNADGTFQAYTFKGHSYSGKALVDFFQEMLEEAYAQPASTDDYATDCLWYLWCGEGSSLFGKRAMKTFERYFLAEKETHYEEKNPYYSLRDTVEVCERILDEFEVTGENRHIINGHTPVKRTKGESPIKANGTLLVIDGGFSKSYQTITGIAGYTLLYNS	not soluble
SSATPIVQFQGESNCLKCFRYRLNDKHRHLFDLISSTWHWASPKAPHKHAIVTVTYHSEEQRQQFLNVVKIPPTIRHKLGFMSMHLL	soluble
MRVAIPAEDDRGIKSNVSKHFGRSRYFVFVDIEGEDVKNVEVVEVPFEEHGPGDLPNFIKDHGAKIVLTYGIGRRAIEYFNSLGISVVTGVYGRISDVIKAFIGGKLKIDYDWKEKIEKEH	soluble
AGYPPASPSNLSCLMHLTTNSLVCQWEPGPETHLPTSFILKSFRSRADCQYQGDTIPDCVAKKRQNNCSIPRKNLLLYQYMAIWVQAENMLGSSESPKLCLDPMDVVKLEPPMLQALDIGPDVVSHQPGCLWLSWKPWKPSEYMEQECELRYQPQLKGANWTLVFHLPSSKDQFELCGLHQAPVYTLQMRCIRSSLPGFWSPWSPGLQLRPTMKA	soluble
MEERLNRVKQQLQQSSYKLTPQREATVRVLIENEKDHLSAEDVYLKVKDKAPEIGLATVYRTLELLAELKVVDKINFGDGVARFDLRKEGAKHFHHHLVCMECGRVDEIDEDLLPEVENRVENEFNFKILDHRLTFHGVCETCQAKGKG	not soluble
MGSDKIHHHHHHMLRVKNLRLKYPNGDRKIFDNLNLEIKNKEKVLLLGPSGSGKSTLLNVLSGIVPNLIELPMKYDELNIDHDSGVIFQDPDNQFCMPKVYEELAFVLENRNIPRSEMDQEIENALKSVDLNVTHKTYVNNLSGGMKQKLAIVETILQKSKTLFLDEPTAMLDVKATEDLWKKLINLWKDQTVLIVEHKVEHIWQHVDRVLLLNYDGEIVADDTPEQILDHYEALLTEYGVWHPRAWHSAPRPIPLPNQTKNLLFHFDDGQIIRGKKTLFSSKELKLYSGEWLTITGKNGAGKTSLLEAMLQLIKYEGDMFYRDQLLSKIKQAAKHMYLVYQNPELQFITNSVYDEVYIHYNHLDPKHANDETMDLLKLLHLDQVKDHHPFEISTGQKRRLSVATALSSKAEIILLDEPTFGLDSHNTFQLIKLFQERVNQGQTIIMVTHDPEIIKRYPTRRLRVEDGCLKEMEGEHIV	not soluble
MAQVPPPMTQVVTSAPPPTAAATVVAGAVAGQPQAVIQQGPPPTNIGYPPNATYSMASLYIGDLHPDVSEAMLFEKFSMAGPVLSIRVCRDNTSRLSLGYAYVNFQQPADAERALDTMNFEVIHGRPMRIMWSQRDPAARRAGNGNIFIKNLDRVIDNKSVYDTFSLFGNILSCKVATDDEGNSKGYGFVHFETEHSAQTAIEKVNGMLLSDKKVYVGKFQPRAQRMKELGESGLKYTNVFVKNFGEHLDQEKLSAMFSKFGEITSAVVMTDAQGKPKGFGFVAFADQDAAGQAVEKLNDSILEGTDCKLSVCRAQKKSERSAELKRKYEALKQERVQRYQGVNLYVKNIEEDLNDDGLRDHFSSFGTITSAKVMVDENGRSKGFGFVCFEKPEEATAAVTDMNSKMIGAKPLYVALAQRKEDRRAQLASQYMQRLATLRMGQQASGVPAMTQLYQPGQQGYFVPNPMNAQGRPGFQPQSAQIRGPPGQRVFQNQMFMQYPFNQRQVYPQQQGRPPMRTNDGRPQYGMAPRPAGAPRVGGPGVQMGGAPIRQQGPAPRGAPQKPFYQGPPRQQQPQQHSQQPAQQPGQQGQGQSGIVIHGQETLTSHMLAQAAPQEQKQLLGERIYALIEKMFPNHKEAGKITGMMLEIDNAELIMMLQDAELFRSKVEEAFGVLTNAQSAAASTSAPTAKN	not soluble
MEHKIGRGLLLGGLLSRFAGFLQSSEESLTSSFASYSSSFFLLTNTRDKRRSERTHTYMQVAQIICAHGATISTTRATLQRAPQSLLATSPDATSDSDDKIVRILVEALRRSDMSIIVSESFDQWARLAVEAKRLGLISFVEAACPSTISISCHAALSTGRINPEVTFRKVHNIHFMAQKTTGKAFASSNPEPVKGTTTSPFFLLSFFFPFFCSFLLRFSPINFPLLLLMNTAIGEYVLRIVVSGKVIMCRAVFGDSLNECRDGGGTDFEMDRYTSR	not soluble
